Target: T1, Cdc13 full-length (FL) (S. cerevisiae, UniProt P32797 1-924)
T1 sequence: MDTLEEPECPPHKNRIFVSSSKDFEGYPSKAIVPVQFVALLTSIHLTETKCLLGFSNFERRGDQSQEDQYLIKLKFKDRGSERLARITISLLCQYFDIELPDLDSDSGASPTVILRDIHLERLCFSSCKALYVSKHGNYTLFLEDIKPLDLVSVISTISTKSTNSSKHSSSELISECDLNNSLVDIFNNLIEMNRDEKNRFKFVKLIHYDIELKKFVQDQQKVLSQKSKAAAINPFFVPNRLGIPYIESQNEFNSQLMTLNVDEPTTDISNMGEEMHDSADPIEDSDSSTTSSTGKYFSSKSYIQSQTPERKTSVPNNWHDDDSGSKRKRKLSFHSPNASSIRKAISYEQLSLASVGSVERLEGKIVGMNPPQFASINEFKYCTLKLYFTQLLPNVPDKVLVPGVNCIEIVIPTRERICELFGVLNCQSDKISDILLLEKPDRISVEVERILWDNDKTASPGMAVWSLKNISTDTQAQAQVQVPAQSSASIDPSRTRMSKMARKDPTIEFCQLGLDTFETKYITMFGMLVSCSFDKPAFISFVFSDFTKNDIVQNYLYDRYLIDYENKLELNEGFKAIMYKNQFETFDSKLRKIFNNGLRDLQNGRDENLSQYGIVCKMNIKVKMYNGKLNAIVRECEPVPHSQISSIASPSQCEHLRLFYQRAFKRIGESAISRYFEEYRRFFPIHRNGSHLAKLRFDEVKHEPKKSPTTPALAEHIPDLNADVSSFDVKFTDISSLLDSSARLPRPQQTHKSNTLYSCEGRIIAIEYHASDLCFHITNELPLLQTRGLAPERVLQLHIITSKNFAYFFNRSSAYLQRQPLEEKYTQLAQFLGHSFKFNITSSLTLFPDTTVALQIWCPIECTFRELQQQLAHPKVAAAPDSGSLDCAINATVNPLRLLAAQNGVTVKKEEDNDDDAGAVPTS
Assay: fluorescence polarisation

Kd: ~325 nM
B1: Hsp82 (yeast Hsp90 molecular chaperone) (natural protein)
chain: not shown

Source: article PMC2744139 (Nature structural & molecular biology, 2009)
